In this experiment the target is T1, recombinantly produced human BCMA (human, UniProt Q02223 1-54, limits assumed).
T1 construct: also called B-cell maturation antigen; TNFRSF17
T1 sequence (looked up): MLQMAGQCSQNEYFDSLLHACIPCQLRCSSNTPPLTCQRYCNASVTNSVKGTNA
The experiment can be described thus: flow cytometry; CAR-transduced cord blood NK cells stained with recombinantly produced human BCMA to detect the CAR on the surface. The method, then: Following the incubation, the cells were transferred to a v-bottom 96-well plate for cell staining. The cells, after pelleted by centrifugation and washed with flow buffer, were stained in 1:10 Fc block with fluorescently conjugated mouse anti-human CD3, mouse anti-human CD56, mouse anti-human NKG2D, and recombinantly produced human BCMA for 30 minutes on ice in the dark. The stained cells were washed, resuspended in Sytox Viability Dye and recorded on an MACSquant flow cytometer. Data were exported and analyzed using FlowJo v10.6.2. Live CD3-CD56⁺BCMA⁺ […] excluding the viability dye were quantified.

B1: BCMA-DAP10 CAR (other)
chain: QITLRESGGDVVQPGRSLRLSCAASGFTFSSYAIHWVRQAPGKGLEWVAVTWHDGSNKYYAESVMGRFTISRDNSKNTLYLHMNSLRAEDTGVYYCARAKFGEPQYFQHWGQGTLVTVSSGGGGSGGGGSGGGGSDIVMTQSPSFLSASVGDRVTITCRASQGINNYLAWYQQKPGIAPKLLIYAASTLQSGVPSRFGGSGSGTEFTLTISSLQPEDFATYYCQQLKSYPFTFGPGTKVEIKRAAAIEVMYPPPYLDNEKSNGTIIHVKGKHLCPSPLFPGPSKPKDPKFWVLVVVGGVLACYSLLVTVAFIIFWVLCARPRRSPAQEDGKVYINMPGRGRVKFSRSADAPAYQQGQNQLYNELNLGRREEYDVLDKRRGRDPEMGGKPRRKNPQEGLYNELQKDKMAEAYSEIGMKGERRRGKGHDGLYQGLSTATKDTYDALHMQALPPR
notes: It leaves out the signal peptide, E2A and IL-15; E2A residues left at the C-terminus after cleavage are not described; also called BCMA CAR; BCMA targeting CAR
Turning to B1, the binding result is “binds”.

For the origin of these results see patent publication US20250255905A1 (University of Texas, published 2025).
